Test results published in patent US20070224188A1.

The substances below were run against biotin-labeled soluble FcRn (assay: FcRn ELISA pH 6.0).

Substance	FcRn pH6.0 (% of wild type)	FcRn6.0 (% of wild type)
anti-CD20 IgG1 R301W (antibody)	119	
anti-CD20 IgG1 D376M (antibody)	129	
anti-CD20 IgG1 L235R (antibody)	93	
anti-CD20 IgG1 A339I (antibody)	80	
anti-CD20 IgG1 S254Q (antibody)	9	
anti-CD20 IgG1 D376N (antibody)	94	
anti-CD20 IgG1 T250R (antibody)	62	
anti-CD20 IgG1 S440K (antibody)	132	
anti-CD20 IgG1 Y436T (antibody)	115	
anti-CD20 IgG1 Y373R (antibody)	107	
anti-CD20 IgG1 E283Y (antibody)	142	
anti-CD20 IgG1 E293V (antibody)	127	
anti-CD20 IgG1 G236R (antibody)	101	
anti-CD20 IgG1 V279I (antibody)	83	
anti-CD20 IgG1 P247N (antibody)	41	
anti-CD20 IgG1 E382T (antibody)	172	
anti-CD20 IgG1 L251F (antibody)	64	
anti-CD20 IgG1 P343K (antibody)	232	
anti-CD20 IgG1 Q438G (antibody)	98	
anti-CD20 IgG1 P247W (antibody)	0	
anti-CD20 IgG1 A339F (antibody)	120	

Substance	FcRn pH6.0 (% of wild type)	FcRn6.0 (% of wild type)
anti-CD20 IgG1 V279N (antibody)	204	
anti-CD20 IgG1 376V434H (antibody)		382
anti-CD20 IgG1 S254R (antibody)	14	
anti-CD20 IgG1 L314Y (antibody)	64	
anti-CD20 IgG1 E430S (antibody)	183	
anti-CD20 IgG1 257I434H (antibody)		472
anti-CD20 IgG1 A431P (antibody)	29	
anti-CD20 IgG1 N434Y (antibody)	1620	
anti-CD20 IgG1 E380T (antibody)	172	
anti-CD20 IgG1 F423N (antibody)	158	
anti-CD20 IgG1 E382W (antibody)	172	
anti-CD20 IgG1 G316F (antibody)	34	
anti-CD20 IgG1 P343T (antibody)	126	
anti-CD20 IgG1 S254L (antibody)	74	
anti-CD20 IgG1 256P430Q (antibody)		150
anti-CD20 IgG1 I332W (antibody)	123	
anti-CD20 IgG1 P271T (antibody)	96	
anti-CD20 IgG1 E430Y (antibody)	126	
anti-CD20 IgG1 E283M (antibody)	95	
anti-CD20 IgG1 H429F (antibody)	77	
anti-CD20 IgG1 E283L (antibody)	126	

Substance	FcRn pH6.0 (% of wild type)	FcRn6.0 (% of wild type)
anti-CD20 IgG1 T250M (antibody)	165	
anti-CD20 IgG1 I332Y (antibody)	93	
anti-CD20 IgG1 R292L (antibody)	68	
anti-CD20 IgG1 N286F (antibody)	307	
anti-CD20 IgG1 P238Y (antibody)	74	
anti-CD20 IgG1 V279R (antibody)	130	
anti-CD20 IgG1 D265Y (antibody)	33	
anti-CD20 IgG1 P343Y (antibody)	112	
anti-CD20 IgG1 330R332D (antibody)		88
anti-CD20 IgG1 Y373M (antibody)	53	
anti-CD20 IgG1 G341F (antibody)	52	
anti-CD20 IgG1 I332V (antibody)	115	
anti-CD20 IgG1 T256Q (antibody)	64	
anti-CD20 IgG1 G341N (antibody)	53	
anti-CD20 IgG1 L328V (antibody)	101	
anti-CD20 IgG1 I332H (antibody)	129	
anti-CD20 IgG1 G236F (antibody)	88	
anti-CD20 IgG1 S440Q (antibody)	81	
anti-CD20 IgG1 311I376V (antibody)		414
anti-CD20 IgG1 Y436I (antibody)	194	
anti-CD20 IgG1 P238W (antibody)	87	

Substance	FcRn pH6.0 (% of wild type)	FcRn6.0 (% of wild type)
anti-CD20 IgG1 257I311I434H (antibody)		553
anti-CD20 IgG1 S440A (antibody)	82	
anti-CD20 IgG1 S254N (antibody)	8	
anti-CD20 IgG1 V279L (antibody)	78	
anti-CD20 IgG1 E283A (antibody)	126	
anti-CD20 IgG1 P343I (antibody)	114	
anti-CD20 IgG1 E382R (antibody)	165	
anti-CD20 IgG1 H268K (antibody)	86	
anti-CD20 IgG1 S440L (antibody)	126	
anti-CD20 IgG1 E430T (antibody)	137	
anti-CD20 IgG1 S254Y (antibody)	0	
anti-CD20 IgG1 V279K (antibody)	79	
anti-CD20 IgG1 Q311M (antibody)	387	
anti-CD20 IgG1 P343H (antibody)	191	
anti-CD20 IgG1 S254A (antibody)	7	
anti-CD20 IgG1 P247A (antibody)	97	
anti-CD20 IgG1 A339M (antibody)	111	
anti-CD20 IgG1 D376I (antibody)	144	
anti-CD20 IgG1 E382L (antibody)	126	
anti-CD20 IgG1 K439E (antibody)	94	
anti-CD20 IgG1 E430D (antibody)	44	

Second part, the substance after the results:

FcRn pH6.0 (% of wild type)	FcRn6.0 (% of wild type)	Substance
92		anti-CD20 IgG1 I332N (antibody)
36		anti-CD20 IgG1 G341I (antibody)
	349	anti-CD20 IgG1 286F376V (antibody)
50		anti-CD20 IgG1 G341E (antibody)
75		anti-CD20 IgG1 P247T (antibody)
117		anti-CD20 IgG1 E283Q (antibody)
492		anti-CD20 IgG1 T307E (antibody)
	88	anti-CD20 IgG1 330K332D (antibody)
54		anti-CD20 IgG1 A327T (antibody)
108		anti-CD20 IgG1 I332F (antibody)
92		anti-CD20 IgG1 A339Y (antibody)
	94	anti-CD20 IgG1 330R332E (antibody)
155		anti-CD20 IgG1 D376A (antibody)
867		anti-CD20 IgG1 P257N (antibody)
0		anti-CD20 IgG1 K248F (antibody)
68		anti-CD20 IgG1 H268D (antibody)
101		anti-CD20 IgG1 E293S (antibody)
33		anti-CD20 IgG1 T256R (antibody)
122		anti-CD20 IgG1 V279M (antibody)
41		anti-CD20 IgG1 R255K (antibody)
73		anti-CD20 IgG1 S440E (antibody)
78		anti-CD20 IgG1 G237K (antibody)

FcRn pH6.0 (% of wild type)	FcRn6.0 (% of wild type)	Substance
162		anti-CD20 IgG1 T256G (antibody)
320		anti-CD20 IgG1 E430Q (antibody)
	50	anti-CD20 IgG1 247L251F330R332E (antibody)
525		anti-CD20 IgG1 V262L (antibody)
90		anti-CD20 IgG1 P238A (antibody)
86		anti-CD20 IgG1 S267H (antibody)
86		anti-CD20 IgG1 I332E (antibody)
0		anti-CD20 IgG1 L251W (antibody)
109		anti-CD20 IgG1 V379T (antibody)
100		anti-CD20 IgG1 S440Y (antibody)
7		anti-CD20 IgG1 S254G (antibody)
251		anti-CD20 IgG1 D376V (antibody)
162		anti-CD20 IgG1 K288N (antibody)
75		anti-CD20 IgG1 Y373W (antibody)
52		anti-CD20 IgG1 G341D (antibody)
169		anti-CD20 IgG1 Q438K (antibody)
81		anti-CD20 IgG1 D270M (antibody)
308		anti-CD20 IgG1 E430I (antibody)
	412	anti-CD20 IgG1 286F311I (antibody)
1020		anti-CD20 IgG1 P257I (antibody)
188		anti-CD20 IgG1 E382Y (antibody)
